Values joined by “and” are separate entries in the source; they are usually repeats but may differ in a detail not shown here. Equal values may be shown once.
Molecular target: H3N2 A/Hong Kong/1/1968 HA [change] (influenza A virus A/Hong Kong/1/1968 (H3N2))

For human monoclonal antibody CR8020, the Kd was 2 nM and 3 nM.
